Non-standard residues stand in square brackets, D forms with d. No end group written: not given here. Nle = CCCC[C@H](N)C(=O)O
Target: human Asp2 aspartyl protease (Hu-Asp2), recombinant enzyme used in the in vitro cleavage assays (human, UniProt P56817 22-453, limits assumed)
Assay: cell-based or functional assay

Chain of human Asp2 aspartyl protease (Hu-Asp2), recombinant enzyme used in the in vitro cleavage assays (P56817 22-453 Q214H limits assumed): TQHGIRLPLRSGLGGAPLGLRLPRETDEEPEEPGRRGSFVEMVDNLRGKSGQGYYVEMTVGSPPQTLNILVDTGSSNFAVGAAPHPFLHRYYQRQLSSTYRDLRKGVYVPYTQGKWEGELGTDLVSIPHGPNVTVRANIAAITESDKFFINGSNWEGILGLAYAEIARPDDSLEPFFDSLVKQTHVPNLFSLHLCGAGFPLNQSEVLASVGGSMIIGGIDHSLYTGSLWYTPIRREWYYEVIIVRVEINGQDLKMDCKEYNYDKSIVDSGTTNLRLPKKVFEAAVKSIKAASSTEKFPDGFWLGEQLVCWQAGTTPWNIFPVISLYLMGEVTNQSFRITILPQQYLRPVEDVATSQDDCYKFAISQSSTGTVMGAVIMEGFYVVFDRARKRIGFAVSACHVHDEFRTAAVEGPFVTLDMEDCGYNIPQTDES

| Binder | activity against SEVSY-EVEFR (SEQ ID NO:141), peptide activity assay [ratio] | activity against peptide #3 (SEQ ID NO:134) [fold lower] |
| --- | --- | --- |
| SEVNYEVEFR [SEVNY-EVEFR] | 0.2 | – |
| KTIN[Nle]DVDPS [KTINnle-DVDPS] | – | ~10 |
